Results: patent publication US8008452B2, “Phosphorylated Ndr kinase” (Novartis Forschungesstiftung, Zweigniederlassung Friedrich …, priority 2002, dated 2011)

Experiments:
HA-NDR1 = HA-NDR1 kinase assay on 12CA5 immunoprecipitates from transfected, treated COS-1 cells; assay type: cell-based, human; design: kinase activity of HA-NDR1 variants, −OA: unit not given here; conditions: COS-1 cells; for kinase activity of HA-NDR1 variants, +OA: 1 microM okadaic acid 1 h; for kinase activity of HA-NDR1 variants, −OA: solvent alone 1 h
Experimental: In some experiments, the cells were treated for 60 min with 1 microM okadaic acid in 0.1% N,N-dimethylformamide (DMF) (Alexis Corp.), 50 microM BAPTA-AM (1,2-bis (o-aminophenoxy) ethane-N,N,N′,N′-tetraacetic acid tetra (acetoxy-methyl)ester) in 0.1% diimethylsulfoxide (DMSO; Sigma), or 20 microM thapsigargin in 0.1% DMSO (Alomone) 24 hours after transfection.
Transfected and treated COS-1 cells were washed once with ice-cold PBS, and harvested by rubber policeman in 1 ml ice-cold PBS containing 1 mM Na3VO4 and 20 mM beta-glycerophosphate before lysis in 500 microliters of IP buffer (20 mM Tris-HCl pH 8.0, 150 mM NaCl, 1% Nonidet P-40, 10% glycerol, 1 mM Na3VO4, 20 mM beta-glycerolphosphate, 1 microM microcystin-LR, 50 mM NaF, 0.5 mM PMSF, 4 microM leupeptin, 1 mM benzamidine, and 1 tablet/10 ml IP of Complete protease inhibitors (Roche)). Lysates were centrifuged at 20 000 g for 20 min and triplicate aliquots (200 microg) of supernatant were precleared with protein A-Sepharose (Amersham Pharmacia Biotech) for 60 min and mixed subsequently for 3 h at 4° C. with 12CA5 antibody prebound to protein A-Sepharose (˜1 microg antibody bound to 2 microl beads). The beads were then washed twice with IP buffer, once for 10 min with IP buffer containing 1 M NaCl, once again for 10 min with IP buffer, and finally twice with 20 mM Tris-HCl pH 7.5 containing 4 microM leupeptin and 1 mM benzamidine. Thereafter, beads were resuspended in 30 microliters buffer containing 20 mM Tris-HCl pH 7.5, 10 mM MgCl2, 1 mM DTT, 100 microM [gamma-^32P]ATP (˜0.1 microCi/microliter), 1 microM cAMP-dependent protein kinase inhibitor peptide PKI (Bachem), 4 microM leupeptin, 1 mM benzamidine, 1 microM microcystin-LR, and 1 mM NDR1 substrate peptide ([…]). After 60 min incubation at 30° C., 15 microliters of supernatant were removed, and phosphate incorporation into the substrate peptide determined as described for GST-NDR1 above.
COS-1 cells expressing either wild type HA-NDR1 or the indicated mutants were treated for 1 h with 1 microM okadaic acid or with solvent alone. HA-tagged NDR kinase variants were then immunoprecipitated (out of 100 microgram of detergent extracts) with 12CA5 monoclonal antibody and assayed for kinase activity by a peptide kinase assay as described above.
Mock-transfected or HA-NDR1-expressing COS-1 cells were treated for 1 h with […], 50 microM BAPTA-AM, and […] or with solvent (0.1% DMF or 0.1% DMSO) alone. 12CA5 immunoprecipitates (out of 100 microgram protein extract) were then assayed using the peptide kinase assay for NDR1 kinase activity.
To test whether hMOB1 plays a role in NDR activation, myc-hMOB1 or the empty vector was cotransfected with HA-NDR1 in COS1 cells and treated with OA. 12CA5 immunoprecipitates were then assayed using the peptide kinase assay for HA-NDR kinase activity. […] GST-MOB and GST respectively was added to immunoprecipitated HA-NDR and kinase reaction were performed. The reactions were resolved on a 10% SDS PAGE and the radioactivity visualised by using a phosphoimager.

myc-hMOB1 = test: Co-immunoprecipitation of HA-NDR and myc-hMOB1 from COS-1 cells; assay type: binding, human; conditions: COS-1 cells treated with OA prior to lysis
Experimental: HA-tagged hNDR and myc-tagged hMOB1 were cotransfected in COS1 cells, which were stimulated with okadaic acid or solvent alone. After cell lysis and extract preparation, HA-NDR was immunoprecipitated and co-immunoprecipitated myc-hMOB1 detected or Myc-hMOB1 was immunoprecipitated and co-immunoprecipitated HA-NDR detected.
HA-NDR, wt and mutants, and myc-hMOB1 were cotransfected into COS-1 cells and the cells were treated with OA prior to lysis. HA-NDR was immunoprecipitated and the coimmunoprecipitated myc-hMOB1 detected. […] Furthermore, the two important in vivo phosphorylation sites of NDR, serine-281 in the activation segment and the hydrophobic motif site threonine-444 in the C-terminal regulatory domain were tested, as well as the threonine 74 site in the N-terminal regulatory domain, for their role in NDR-MOB interaction.
HA-NDR N-terminal point mutants and myc-mob1 were co-transfected into COS1 cells which were treated with OA prior to lysis. HA-NDR mutants were immunoprecipitated and coimmunoprecipitated myc-hMOB1 detected.
In this Example, the effect of treatment of COS1 cells with BAPTA-AM on the NDR-MOB Interaction was determined. HA-NDR and myc-MOB1 was cotransfected into COS1 cells and the cells were treated with BAPTA-AM and OA or the solvents alone prior to lysis. HA-NDR was immunoprecipitated and co-immunoprecipitated myc-MOB1 detected. The kinase activity of the HA-NDR immunoprecipitates was measured in a peptide kinase assay.

GST-NDR1 = GST-NDR1 kinase assay (peptide kinase assay); assay type: biochemical, human; design: Specific activity of GST-NDR1 variants, CTRL / Specific activity of GST-NDR1 variants, −S100B / Specific activity of GST-NDR1 variants, +S100B: unit not given here; conditions: for Specific activity of GST-NDR1 variants, −S100B: autophosphorylated 2 h in the absence of CaCl2 and S100B; for Specific activity of GST-NDR1 variants, +S100B: autophosphorylated 2 h in the presence of 1 mM CaCl2 and 10 mM bovine S100B; for Specific activity of GST-NDR1 variants, CTRL: left without further treatment
Experimental: 1 microgram of purified recombinant GST-NDR1 wild type and mutants (without further treatment or autophosphorylated for 2 h in the presence or absence of 1 mM CaCl2 and […] (Sigma)) were assayed in 20 microliter of reaction mixture containing 20 mM Tris-HCl pH 7.5, 10 mM MgCl2, 1 mM DTT, 100 microM [gamma-^32P]ATP (˜0.5 microCi/microliter), and 1 mM NDR1 substrate peptide ([…]; SEQ ID NO:22). After 30 mins incubation at 30° C., reactions were stopped with 50 mM EDTA, and 10 microliters of reaction mixture were spotted onto 2 cm^2 squares of P81 phosphocellulose paper (Whatman). These were subsequently washed for 4×5 min and 3×20 min in 1% phosphoric acid and once in acetone before counting in a liquid scintillation counter. One unit of NDR1 activity was defined as the amount which catalyses the phosphorylation of 1 nmol peptide substrate in 1 min.
Specific activity of GST-NDR1 mutants was also measured by a peptide kinase assay as described above. For this purpose, 1 microgram of purified GST-NDR1 wild type and alanine mutants were left without further treatment or autophosphorylated for 2 h in the presence or absence of 1 mM CaCl2 and […].

Substance | kinase activity of HA-NDR1 variants, +OA (HA-NDR1) | kinase activity of HA-NDR1 variants, −OA (HA-NDR1) | interaction of HA-NDR variant with myc-hMOB1 (myc-hMOB1) | Specific activity of GST-NDR1 variants, −S100B (GST-NDR1) | Specific activity of GST-NDR1 variants, +S100B (GST-NDR1) | Specific activity of GST-NDR1 variants, CTRL (GST-NDR1) | interaction of HA-NDR variant with myc-hMOB1 (myc-hMOB1; listed as threonine 74) | kinase activity of GST-NDR1 mutant (in words) (GST-NDR1; compared with wild type)
K118A: NDR1 kinase dead mutant, Lys 118 to alanine; GST fusion or HA-tagged | 0.0204 | 0.0107 | still able to interact with hMOB1 | 0.272 | 0.222 | 0.158 |  | 
T74A: NDR1 alanine mutant of phosphorylation residue Thr74; GST fusion or HA-tagged | 1.053 | 0.124 | complete absence of interaction with MOB1 | 3.786 | 7.818 | 1.006 | not tolerated for the interaction with MOB | negligible reduction
T444A: NDR1 alanine mutant of phosphorylation residue Thr444; GST fusion or HA-tagged | 0.6019 | 0.1067 | still interact with MOB1 | 1.92 | 3.974 | 0.564 |  | 
